Test results from article PMC3400562, “Structure-guided Alterations of the gp41-directed HIV-1 Broadly Neutralizing Antibody 2F5 Reveal New Properties Regarding its Neutralizing Function” (PLoS Pathogens, 2012).

B1: 2F5 CDRH3 length-altered variant r2 (antibody, V domains shown)
VH: RITLKESGPPLVKPTQTLTLTCSFSGFSLSDFGVGVGWIRQPPGKALEWLAIIYSDDDKRYSPSLNTRLTITKDTSKNQVVLVMTRVSPVDTATYFCAHRRGPTLFGVIARGPVNAMDVWGQGITVTISS
VL: ALQLTQSPSSLSASVGDRITITCRASQGVTSALAWYRQKPGSPPQLLIYDASSLESGVPSRFSGSGSGTEFTLTISTLRPEDFATYYCQQLHFYPHTFGGGTRVDVR
B2: 2F5 CDRH3 length-altered variant r4 (antibody, V domains shown)
VH: RITLKESGPPLVKPTQTLTLTCSFSGFSLSDFGVGVGWIRQPPGKALEWLAIIYSDDDKRYSPSLNTRLTITKDTSKNQVVLVMTRVSPVDTATYFCAHRRGPLFGVARGPVNAMDVWGQGITVTISS
VL: B1 VL
B3: 2F5 CDRH3 length-altered variant r6 (antibody, V domains shown)
VH: RITLKESGPPLVKPTQTLTLTCSFSGFSLSDFGVGVGWIRQPPGKALEWLAIIYSDDDKRYSPSLNTRLTITKDTSKNQVVLVMTRVSPVDTATYFCAHRRGLFGVRGPVNAMDVWGQGITVTISS
VL: B1 VL
B4: 2F5 CDRH3 length-altered variant e4 (antibody, V domains shown)
VH: RITLKESGPPLVKPTQTLTLTCSFSGFSLSDFGVGVGWIRQPPGKALEWLAIIYSDDDKRYSPSLNTRLTITKDTSKNQVVLVMTRVSPVDTATYFCAHRRGPTTGGLFGVGGPIARGPVNAMDVWGQGITVTISS
VL: B1 VL
B5: wt 2F5 antibody (antibody, V domains shown)
VH: RITLKESGPPLVKPTQTLTLTCSFSGFSLSDFGVGVGWIRQPPGKALEWLAIIYSDDDKRYSPSLNTRLTITKDTSKNQVVLVMTRVSPVDTATYFCAHRRGPTTLFGVPIARGPVNAMDVWGQGITVTISS
VL: B1 VL
notes: also called 2F5 Mab; Mab 2F5
B6: 2F5 CDRH3 length-altered variant e2 (antibody, V domains shown)
VH: RITLKESGPPLVKPTQTLTLTCSFSGFSLSDFGVGVGWIRQPPGKALEWLAIIYSDDDKRYSPSLNTRLTITKDTSKNQVVLVMTRVSPVDTATYFCAHRRGPTTGLFGVGPIARGPVNAMDVWGQGITVTISS
VL: B1 VL

Assays:
wt MPER peptide [1] = target: T1, wt MPER peptide (HIV-1, strain  (synthetic …)); assay: cell-based or functional assay
wt MPER peptide [2] = target: T1, wt MPER peptide; assay: BLI; Octet Red; Mabs captured on anti-human IgG Fc biosensors (10 µg/mL), peptides or ES2 as analyte in solution, two-fold dilutions 500 nM to 7.81 nM, PBS pH 7.4, 0.2% Tween 20, 60 s association and 60 s dissociation, no lipid; Langmuir 1:1 fit; also used for the alanine-substituted MPER peptides; settings: both partners purified
linked peptide [3] = target: T2, linked peptide (HIV-1, strain  (synthetic …)); assay: as above; settings: both partners purified
T2 construct: source: synthetic peptide (Genscript)

wt MPER peptide [4] = target: T1, wt MPER peptide; assay: BLI; settings: both partners purified
linked peptide [5] = target: T2, linked peptide; assay: BLI; settings: both partners purified

| Binder | IC50 of neutralisation of JR-CSF Env-pseudotyped HIV-1, single-cycle infectivity assay on TZM-bl cells (wt MPER peptide [1]) | IC50 of neutralisation of JR-FL Env-pseudotyped HIV-1, single-cycle infectivity assay on TZM-bl cells (wt MPER peptide [1]) | Kd (wt MPER peptide [2]) | koff (wt MPER peptide [2]) | kon (wt MPER peptide [2]) | Kd (linked peptide [3]) | koff (linked peptide [3]) | kon (linked peptide [3]) | Kd (wt MPER peptide [4]) | koff (wt MPER peptide [4]) | kon (wt MPER peptide [4]) | Kd (linked peptide [5]) | koff (linked peptide [5]) | kon (linked peptide [5]) |
| --- | --- | --- | --- | --- | --- | --- | --- | --- | --- | --- | --- | --- | --- | --- |
| B1 | 98 µg/mL | 111 µg/mL | 90.2 nM | 0.0051 s⁻¹ | 50000 M⁻¹ s⁻¹ | 55.8 nM | 0.0085 s⁻¹ | 150000 M⁻¹ s⁻¹ | – | – | – | – | – | – |
| B2 | – | – | 382 nM | 0.0081 s⁻¹ | 20000 M⁻¹ s⁻¹ | 96.8 nM | 0.0105 s⁻¹ | 100000 M⁻¹ s⁻¹ | – | – | – | – | – | – |
| B3 | – | – | 390 nM | 0.0189 s⁻¹ | 40000 M⁻¹ s⁻¹ | 125 nM | 0.0237 s⁻¹ | 180000 M⁻¹ s⁻¹ | – | – | – | – | – | – |
| B4 | – | – | 239 nM | 0.0101 s⁻¹ | 40000 M⁻¹ s⁻¹ | 78.6 nM | 0.0104 s⁻¹ | 130000 M⁻¹ s⁻¹ | – | – | – | – | – | – |
| B5 | – | – | – | – | – | – | – | – | 3.1 nM | 0.0007 s⁻¹ | 230000 M⁻¹ s⁻¹ | 2.2 nM | 0.0007 s⁻¹ | 360000 M⁻¹ s⁻¹ |
| B6 | – | – | 463 nM | 0.0087 s⁻¹ | 10000 M⁻¹ s⁻¹ | 26.9 nM | 0.0035 s⁻¹ | 130000 M⁻¹ s⁻¹ | – | – | – | – | – | – |
